# US20220227815A1, “COMPOSITIONS AND METHODS USEFUL IN TREATING BRAIN DISEASES” (University of Kansas, priority 2019, published 2022)
# B1: BDNF: recombinant brain-derived neurotrophic factor (13 kDa monomer), Peprotech (protein, UniProt P23560 19-247, looked up)
# Neurotrophic factor BDNF …: APMKEANIRGQGGLAYPGVRTHGTLESVNGPKAGSRGLTSLADTFEHVIEELLDEDQKVRPNEENNKDADLYTSRVMLSSQVPLEPPLLFLLEEYKNYLDAANMSMRVRRHSDPARRGELSVCDSISEWVTAADKKTAVDMSGGTVTVLEKVPVSKGQLKQYFYETKCNPMGYTKEGCRGIDKRHWNSQCRTTQSYVRALTMDSKKRIGWRFIRIDTSCVCTLTIKRGR
# Key:
# amyloid beta plaques = experiment: Amyloid beta plaque load in hippocampus, Congo red staining; format: in vivo, transgenic APP/PS1 mice; details: APP/PS1 mice; 8 injections; all three groups compared; n=5
# Experimental: Animals: All animal studies were carried out under the approved animal protocol (AUS-74-11) granted by Institutional Animal Care and Use Committee (IACUC) at The University of Kansas. Animal Care Unit (ACU) personnel and veterinarians were involved in the care of the animals used in this study. Female transgenic APP/PS1 (MMRRC stock #34832-Jax) were obtained from Jackson Laboratory (Bar Harbor, Me.) and housed until at least 6 months of age. Mice received intravenous (i.v.) injections of either BDNF (5.7 nmol/kg)+ADTC5 (10 μmol/kg; n=7), BDNF alone (5.7 nmol/kg; n=6), or vehicle (n=6) every 4 days, for a total of 8 injections. At the end of the study, the mice were euthanized via CO2 inhalation and perfused with PBS immediately followed by 4% formalin fixative solution. The brains were extracted and post-fixed overnight in the perfusion-fixation solution then transferred to 70% ethanol PBS solution for paraffin embedding.
# Coronal brain sections (10 μm thickness) were generated and mounted onto gelatin-coated slides (Superfrost Plus, Thermo Fisher Scientific, Waltham, Mass.). For both Aβ histology and NG2 receptor immunohistochemistry, sections were deparaffinized using xylene and serially hydrated from 95% ethanol to distilled water. […] Aβ plaque levels were quantified by counting the number of plaques from the hippocampus at 10× magnification from 5 random sections per group (n=5).
# [1] = test system: EGR1, ARC, and NOS1 mRNA transcripts; experiment: Fluorescent in situ hybridization of mRNA transcripts in EAE mouse cortex; format: in vivo, SJL/elite mice; details: across the three groups, n=5
# Experimental: Coronal brain sections (5 μm thickness) from mid- and hind-brain were sectioned and washed three times in PBS before mounting on gelatin-coated glass slides (Superfrost Plus, Thermo Fisher Scientific). Tissue was allowed to dry at RT and then stored at −20° C. until use. Fluorescent in situ hybridization (FISH) was performed using RNAscope® Technology 2.0, Advanced Cell Diagnostics (ACD), Hayward, Calif.) Multiplex Reagent Kit V2. See Vasquez, J. J.; Hussien, R.; Aguilar-Rodriguez, B.; Junger, H.; Dobi, D.; Henrich, T. J.; Thanh, C.; Gibson, E.; Hogan, L. E.; McCune, J.; Hunt, P. W.; Stoddart, C. A.; Laszik, Z. G. Elucidating the Burden of HIV in Tissues Using Multiplexed Immunofluorescence and In Situ Hybridization: Methods for the Single-Cell Phenotypic Characterization of Cells Harboring HIV In Situ. J Histochem Cytochem 2018, 66, (6), 427-446; Gershon, T. R.; Crowther, A. J.; Liu, H.; Miller, C. R.; Deshmukh, M. Cerebellar granule neuron progenitors are the source of Hk2 in the postnatal cerebellum. Cancer Metab 2013, 1, (1), 15; and Smith, P. A.; Schmid, C.; Zurbruegg, S.; Jivkov, M.; Doelemeyer, A.; Theil, D.; Dubost, V.; Beckmann, N. Fingolimod inhibits brain atrophy and promotes brain-derived neurotrophic factor in an animal model of multiple sclerosis. J Neuroimmunol 2018, 318, 103-113. […]
molecule,measurement,setting,value
B1,amounts of amyloid beta plaques in hippocampus,amyloid beta plaques,no significant difference
same,NOS mRNA expression,[1],no significant difference
